Results on one molecule are retold here after patent publication US20070089183A1 (WASHINGTON STATE UNIVERSITY, published 2007).

This test has as its target dansyl-CaM (Sigma) (Homo sapiens (Human), UniProt P0DP23 2-149). Nature of the test: fluorescence titration of dansyl-CaM with increasing amounts of peptide.

B1: synthetic DWF1 CaM-binding peptide (518-539), CRKKYRAIGTFMSVYYKSKKGR (peptide)
peptide: CRKKYRAIGTFMSVYYKSKKGR
notes: also called synthetic DWF1 CaMBD
As usually defined, the Kd is the constant that tells how readily two partners part at equilibrium. A low value points to tighter binding. B1 had a Kd of 24.2 nM.
